Data taken from US6001823A, “Treatment or prophylaxis of diseases caused by pilus-forming bacteria” (priority 1995, dated 1999).
Entries after “also recorded” stand apart in the source; their conditions may differ.

Columns and labels:
PapD = target: T1, PapD (Escherichia coli, UniProt P15319); assay: Protection of PapD against tryptic cleavage by peptides; format: biochemical, E. coli; parameters: made in house; settings: PapD preincubated with 20-fold molar excess of peptide
T1 sequence (P15319 22-239): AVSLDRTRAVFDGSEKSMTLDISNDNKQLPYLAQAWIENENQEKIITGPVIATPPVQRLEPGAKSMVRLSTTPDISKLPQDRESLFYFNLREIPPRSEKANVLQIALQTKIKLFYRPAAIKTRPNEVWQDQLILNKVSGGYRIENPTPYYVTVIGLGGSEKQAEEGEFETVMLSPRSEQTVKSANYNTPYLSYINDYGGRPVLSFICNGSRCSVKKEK
Protocol: A Lower: The rate of trypsin cleavage of PapD decreased upon preincubation with the G1'-19'WT, G1'-16'WT or K1'-19'WT peptides, but the G2'-21'amide peptide had no effect. 50 μg of purified PapD was preincubated for 15 min at 25° C. with a 20-fold molar excess of G1'-19'WT, G1'-16'WT, K1'-19'WT or G2'-21'amide peptides (any trypsin cleavage sites in these peptides occur at their amino termini where they were predicted not to interfere with PapD), or an equivalent volume of water. Each sample was then incubated at 37° C. with 3.2 μg of trypsin. Aliquots were removed after 0, 5, 10, 20, 30 and 40 min and boiled in SDS-PAGE sample buffer to stop the digestion. The samples were applied to 15% SDS-PAGE gels and the amount of full-length PapD remaining was determined by densitometry of Coomassie blue stained bands corresponding to full-length PapD which are shown.
400 μg of PapD was partially digested by incubation with either 4,5 μg trypsin or 0.45 μg chymotrypsin on PBS for 20 min. at 37° C. The PapD digests were applied to a C-18 HPLC column (Beckman) and 2 major fragments were eluted with a 0-100% acetonitrile gradient in 0.01% trifluoroacetic acid. The PapD fragments were identified by their molecular weight on SDS-PAGE and amino-terminal sequencing. The N-terminal amino acid sequences of the approximately 14 kDa tryptic and chymotryptic fragments were identified as residues 100-108 and 104-109 of PapD, respectively, corresponding to cleavage after Lys-99 (for trypsin) and Leu-103 (for chymotrypsin). The N-terminal sequences of the 11 and 12 kDa bands in the digests were identical to the N-terminal sequence of PapD.

PapD-PapG complex = target: T2, PapD-PapG complex (Escherichia coli, UniProt P15319); assay: Reconstitution assay: restoration of PapD-PapG complex from reduced, denatured PapG; format: biochemical, E. coli; settings: PapD incubated with increasing amounts of peptide
T2 construct: made in house
T2 sequence (P15319 22-239): T1 sequence (P15319 22-239)
Protocol: B: PapD incubated with the G1'-19'WT, G1'-16'WT, K1'-19'WT, and G2'-21'amide was added to reduced, denatured PapD-PapG and the amount of PapD-PapG complex restored in each sample was quantitated as described in example 2. The % inhibition represents the amount of the PapD-PapG complex restored with peptide-treated PapD compared to the amount of PapD-PapG complex restored with untreated PapD. The graph represent the average of 4 experiments. PapD and PapD-PapG complex were prepared as described in F. Lindberg et al, J. Bacteriol. 171, 6052 (1989) and S. J. Hultgren et al., Proc. Natl. Acad. Sci. U.S.A. 86, 4357 (1989).
FIG. 7: Ability of PapD Arg-8, Lys-112 and Thr-7 mutants to bind PapG and restore the PapD-PapG complex in vitro. 0.4 μg of PapD-PapG complex was reduced and denatured as described in FIG. 2B. The denatured PapD-PapG complex was then diluted with 0-630 ng purified wild type (WT) or mutant PapD. The amount of PapD-PapG restored in the samples was determined as in FIG. 2B and was graphed as a percentage of the greatest amount of PapD-PapG restored. The values graphed represent the average of 3 experiments. Wild type and mutant PapD and the PapD-PapG complex were purified as described in F. Lindberg et al, J. Bacteriol. 171, 6052 (1989) and S. J. Hultgren et al., Proc. Natl. Acad. Sci. U.S.A. 86, 4357 (1989).
As described in Kuehn et al., Proc. Natl. Acad. Sci. U.S.A. 88, 10586 (1991), native PapD is able to bind to reduced, denatured PapG and restore the PapD-PapG complex in vitro. This reconstitution assay was used to determine the ability of the peptides to inhibit PapD activity in vitro.
The PapD-peptide solution was then added to the reduced, denatured PapD-PapG, incubated at 25° C. for 10 min, and applied to an IEF 3-9 gel (Pharmacia). The amount of PapD-PapG restored in each sample was quantitated by densitometry of the silver stained IEF band corresponding to the pI of the DG complex.

Substance: NH2--KPGELSGSMTMVLSFP--COOH (H-KPGELSGSMTMVLSFP-OH) [G1'-16'WT]
- rate of tryptic cleavage of PapD (PapD): decreased; also recorded: reduced the rate of tryptic cleavage
- inhibition of restoration of the PapD-PapG complex by PapD (PapD-PapG complex): inhibit restoration
